For orientation: Kd means the equilibrium constant for the complex coming apart. Low readings indicate tighter binding, high ones weaker binding.

Sequences and labels used below:
T1: EsCas13d, nuclease-dead (Eubacterium siraeum, UniProt B0MS50, R295A;H300A;R849A;H854A)
T1 sequence: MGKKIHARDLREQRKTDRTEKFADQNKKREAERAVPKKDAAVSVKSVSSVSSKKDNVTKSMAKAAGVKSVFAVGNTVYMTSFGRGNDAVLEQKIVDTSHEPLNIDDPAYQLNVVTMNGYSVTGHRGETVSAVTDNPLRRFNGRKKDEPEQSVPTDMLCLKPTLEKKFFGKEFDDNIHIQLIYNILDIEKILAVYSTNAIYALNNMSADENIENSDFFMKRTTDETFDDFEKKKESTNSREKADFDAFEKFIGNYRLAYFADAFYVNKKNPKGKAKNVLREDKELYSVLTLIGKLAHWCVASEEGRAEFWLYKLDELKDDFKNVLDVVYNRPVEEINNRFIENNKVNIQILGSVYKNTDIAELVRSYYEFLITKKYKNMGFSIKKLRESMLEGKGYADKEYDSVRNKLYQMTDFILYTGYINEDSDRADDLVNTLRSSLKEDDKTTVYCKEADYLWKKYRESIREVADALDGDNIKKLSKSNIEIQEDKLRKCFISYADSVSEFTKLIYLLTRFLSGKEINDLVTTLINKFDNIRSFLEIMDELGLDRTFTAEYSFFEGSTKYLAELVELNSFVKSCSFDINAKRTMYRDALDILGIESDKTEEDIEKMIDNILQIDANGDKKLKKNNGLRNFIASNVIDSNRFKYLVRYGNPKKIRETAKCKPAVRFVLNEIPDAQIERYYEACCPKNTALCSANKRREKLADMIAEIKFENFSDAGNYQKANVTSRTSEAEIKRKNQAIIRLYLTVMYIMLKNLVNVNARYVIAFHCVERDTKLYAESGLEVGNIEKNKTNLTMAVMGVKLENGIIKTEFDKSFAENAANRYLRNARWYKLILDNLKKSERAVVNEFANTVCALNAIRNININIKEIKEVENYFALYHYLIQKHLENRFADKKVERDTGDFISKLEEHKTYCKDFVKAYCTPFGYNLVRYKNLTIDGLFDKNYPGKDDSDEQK

B1: target 1 MT 5'PFS GUA 3'PFS CGC (mixed)
RNA 1: CACCCGUGCAAAAAUGCAGGGGUCUAAAACUGAGCGGAUAACCUCUCUAUGG
RNA 2: GGGAAUGGAUCCACAUCUACGAAUUCGUACCAUAGAGAGGUUAUCCGCUCACGCAGAUCGGAAGAGCACACGU
B2: target 1 MT 5'PFS AGA 3'PFS UGA (mixed)
RNA 1: CACCCGUGCAAAAAUGCAGGGGUCUAAAACUGAGCGGAUAACCUCUCUAUGG
RNA 2: GGGAAUGGAUCCACAUCUACGAAUUCAGACCAUAGAGAGGUUAUCCGCUCAUGAAGAUCGGAAGAGCACACGU
B3: target 1 MT 5'PFS GAA 3'PFS AUU (mixed)
RNA 1: CACCCGUGCAAAAAUGCAGGGGUCUAAAACUGAGCGGAUAACCUCUCUAUGG
RNA 2: GGGAAUGGAUCCACAUCUACGAAUUCGAACCAUAGAGAGGUUAUCCGCUCAAUUAGAUCGGAAGAGCACACGU
B4: target 1 MT 5'PFS GGC 3'PFS UAC (mixed)
RNA 1: CACCCGUGCAAAAAUGCAGGGGUCUAAAACUGAGCGGAUAACCUCUCUAUGG
RNA 2: GGGAAUGGAUCCACAUCUACGAAUUCGGCCCAUAGAGAGGUUAUCCGCUCAUACAGAUCGGAAGAGCACACGU
B5: target 1 MT 5'PFS GUA 3'PFS AGA (mixed)
RNA 1: CACCCGUGCAAAAAUGCAGGGGUCUAAAACUGAGCGGAUAACCUCUCUAUGG
RNA 2: GGGAAUGGAUCCACAUCUACGAAUUCGUACCAUAGAGAGGUUAUCCGCUCAAGAAGAUCGGAAGAGCACACGU
B6: target 1 MT 5'PFS CUU 3'PFS CAC (mixed)
RNA 1: CACCCGUGCAAAAAUGCAGGGGUCUAAAACUGAGCGGAUAACCUCUCUAUGG
RNA 2: GGGAAUGGAUCCACAUCUACGAAUUCCUUCCAUAGAGAGGUUAUCCGCUCACACAGAUCGGAAGAGCACACGU
B7: target 1 G15C,A16C (mixed)
RNA 1: CACCCGUGCAAAAAUGCAGGGGUCUAAAACUGAGCGGAUAACCUCUCUAUGG
RNA 2: GGGAAUGGAUCCACAUCUACGAAUUCGUACCAUAGCCAGGUUAUCCGCUCACCGAGAUCGGAAGAGCACACGU
B8: target 1 MT 5'PFS CCU 3'PFS UAG (mixed)
RNA 1: CACCCGUGCAAAAAUGCAGGGGUCUAAAACUGAGCGGAUAACCUCUCUAUGG
RNA 2: GGGAAUGGAUCCACAUCUACGAAUUCCCUCCAUAGAGAGGUUAUCCGCUCAUAGAGAUCGGAAGAGCACACGU
B9: target 1 MT 5'PFS GUG 3'PFS GGU (mixed)
RNA 1: CACCCGUGCAAAAAUGCAGGGGUCUAAAACUGAGCGGAUAACCUCUCUAUGG
RNA 2: GGGAAUGGAUCCACAUCUACGAAUUCGUGCCAUAGAGAGGUUAUCCGCUCAGGUAGAUCGGAAGAGCACACGU
B10: target 1 MT 5'PFS GUA 3'PFS AGC (mixed)
RNA 1: CACCCGUGCAAAAAUGCAGGGGUCUAAAACUGAGCGGAUAACCUCUCUAUGG
RNA 2: GGGAAUGGAUCCACAUCUACGAAUUCGUACCAUAGAGAGGUUAUCCGCUCAAGCAGAUCGGAAGAGCACACGU
B11: target 1 complement block 6-12 (mixed)
RNA 1: CACCCGUGCAAAAAUGCAGGGGUCUAAAACUGAGCGGAUAACCUCUCUAUGG
RNA 2: GGGAAUGGAUCCACAUCUACGAAUUCGUACCAUAGAGAGCAAUAGGGCUCACCGAGAUCGGAAGAGCACACGU
B12: target 1 MT 5'PFS UGU 3'PFS CGA (mixed)
RNA 1: CACCCGUGCAAAAAUGCAGGGGUCUAAAACUGAGCGGAUAACCUCUCUAUGG
RNA 2: GGGAAUGGAUCCACAUCUACGAAUUCUGUCCAUAGAGAGGUUAUCCGCUCACGAAGAUCGGAAGAGCACACGU
B13: target 1 MT 5'PFS GUA 3'PFS AGU (mixed)
RNA 1: CACCCGUGCAAAAAUGCAGGGGUCUAAAACUGAGCGGAUAACCUCUCUAUGG
RNA 2: GGGAAUGGAUCCACAUCUACGAAUUCGUACCAUAGAGAGGUUAUCCGCUCAAGUAGAUCGGAAGAGCACACGU
B14: target 1 MT 5'PFS CCU 3'PFS UAC (mixed)
RNA 1: CACCCGUGCAAAAAUGCAGGGGUCUAAAACUGAGCGGAUAACCUCUCUAUGG
RNA 2: GGGAAUGGAUCCACAUCUACGAAUUCCCUCCAUAGAGAGGUUAUCCGCUCAUACAGAUCGGAAGAGCACACGU
B15: target 1 MT 5'PFS GUA 3'PFS AGG (mixed)
RNA 1: CACCCGUGCAAAAAUGCAGGGGUCUAAAACUGAGCGGAUAACCUCUCUAUGG
RNA 2: GGGAAUGGAUCCACAUCUACGAAUUCGUACCAUAGAGAGGUUAUCCGCUCAAGGAGAUCGGAAGAGCACACGU
B16: target 1 MT 5'PFS UUG 3'PFS CAA (mixed)
RNA 1: CACCCGUGCAAAAAUGCAGGGGUCUAAAACUGAGCGGAUAACCUCUCUAUGG
RNA 2: GGGAAUGGAUCCACAUCUACGAAUUCUUGCCAUAGAGAGGUUAUCCGCUCACAAAGAUCGGAAGAGCACACGU
B17: target 1 MT 5'PFS GUA 3'PFS CGA (mixed)
RNA 1: CACCCGUGCAAAAAUGCAGGGGUCUAAAACUGAGCGGAUAACCUCUCUAUGG
RNA 2: GGGAAUGGAUCCACAUCUACGAAUUCGUACCAUAGAGAGGUUAUCCGCUCACGAAGAUCGGAAGAGCACACGU
B18: target 1 MT 5'PFS GUA 3'PFS CGU (mixed)
RNA 1: CACCCGUGCAAAAAUGCAGGGGUCUAAAACUGAGCGGAUAACCUCUCUAUGG
RNA 2: GGGAAUGGAUCCACAUCUACGAAUUCGUACCAUAGAGAGGUUAUCCGCUCACGUAGAUCGGAAGAGCACACGU
B19: target 1 MT 5'PFS CCU 3'PFS UAU (mixed)
RNA 1: CACCCGUGCAAAAAUGCAGGGGUCUAAAACUGAGCGGAUAACCUCUCUAUGG
RNA 2: GGGAAUGGAUCCACAUCUACGAAUUCCCUCCAUAGAGAGGUUAUCCGCUCAUAUAGAUCGGAAGAGCACACGU
B20: target 1 MT 5'PFS UUG 3'PFS CAC (mixed)
RNA 1: CACCCGUGCAAAAAUGCAGGGGUCUAAAACUGAGCGGAUAACCUCUCUAUGG
RNA 2: GGGAAUGGAUCCACAUCUACGAAUUCUUGCCAUAGAGAGGUUAUCCGCUCACACAGAUCGGAAGAGCACACGU
B21: target 1 MT 5'PFS UUG 3'PFS CAU (mixed)
RNA 1: CACCCGUGCAAAAAUGCAGGGGUCUAAAACUGAGCGGAUAACCUCUCUAUGG
RNA 2: GGGAAUGGAUCCACAUCUACGAAUUCUUGCCAUAGAGAGGUUAUCCGCUCACAUAGAUCGGAAGAGCACACGU
B22: target 1 C4U,U8G (mixed)
RNA 1: CACCCGUGCAAAAAUGCAGGGGUCUAAAACUGAGCGGAUAACCUCUCUAUGG
RNA 2: GGGAAUGGAUCCACAUCUACGAAUUCGUACCAUAGAGAGGUUAGCCGUUCACCGAGAUCGGAAGAGCACACGU
B23: target 1 MT 5'PFS CUC 3'PFS UCG (mixed)
RNA 1: CACCCGUGCAAAAAUGCAGGGGUCUAAAACUGAGCGGAUAACCUCUCUAUGG
RNA 2: GGGAAUGGAUCCACAUCUACGAAUUCCUCCCAUAGAGAGGUUAUCCGCUCAUCGAGAUCGGAAGAGCACACGU
B24: target 1 MT 5'PFS CUC 3'PFS UCA (mixed)
RNA 1: CACCCGUGCAAAAAUGCAGGGGUCUAAAACUGAGCGGAUAACCUCUCUAUGG
RNA 2: GGGAAUGGAUCCACAUCUACGAAUUCCUCCCAUAGAGAGGUUAUCCGCUCAUCAAGAUCGGAAGAGCACACGU
B25: target 1 MT 5'PFS GGC 3'PFS UAA (mixed)
RNA 1: CACCCGUGCAAAAAUGCAGGGGUCUAAAACUGAGCGGAUAACCUCUCUAUGG
RNA 2: GGGAAUGGAUCCACAUCUACGAAUUCGGCCCAUAGAGAGGUUAUCCGCUCAUAAAGAUCGGAAGAGCACACGU
B26: target 1 MT 5'PFS CAA 3'PFS AGU (mixed)
RNA 1: CACCCGUGCAAAAAUGCAGGGGUCUAAAACUGAGCGGAUAACCUCUCUAUGG
RNA 2: GGGAAUGGAUCCACAUCUACGAAUUCCAACCAUAGAGAGGUUAUCCGCUCAAGUAGAUCGGAAGAGCACACGU
B27: target 1 MT 5'PFS GGC 3'PFS UAG (mixed)
RNA 1: CACCCGUGCAAAAAUGCAGGGGUCUAAAACUGAGCGGAUAACCUCUCUAUGG
RNA 2: GGGAAUGGAUCCACAUCUACGAAUUCGGCCCAUAGAGAGGUUAUCCGCUCAUAGAGAUCGGAAGAGCACACGU

The data set deals with T1, EsCas13d, nuclease-dead. The data set can be described thus: crRNA (strand 1, pre-loaded); Mg2+; 40 mM Tris-HCl pH 7.5, 150 mM NaCl, 6 mM MgCl2, 1 mM DTT, 0.1% Tween-20, 0.2 mg/ml BSA; 25 C; 10 min per concentration, then washed. The following applies: tags: His6-TwinStrep-SUMO cleaved; N-terminal SNAP kept (SNAP-Surface 488); label: 3' end held by stalled T7 RNA polymerase.
B1 gave a Kd of 11.2 ± 1.15 nM. B2 yielded a Kd of 90 ± 40 nM.

B3 yielded a Kd of 24.5 ± 8.5 nM.

With B4, the Kd was found to be 19 ± 5 nM. Then B5, with 12.7 ± 0.8 nM; and B6, with 47 ± 19 nM; and B7, with around 90 nM.

Molecule B8 gave a Kd of 28 ± 11 nM. The result for B9 reads 25.6 ± 2.7 nM. In turn, B10 had a Kd of 6.27 ± 0.515 nM.

B11 had a dissociation constant (Kd) of 16.7 ± 1 nM. Molecule B12 returned a Kd of 60 ± 28.5 nM.

B13 came in with a Kd of 9.9 ± 0.8 nM. In turn, B14 came in with a Kd of 13.4 ± 2.7 nM. On to B15, for which the Kd was 22.9 ± 1.4 nM. B16: the Kd is around 55 nM.

Regarding B17, the Kd worked out at 17.8 ± 2.55 nM. Then B18, with 5.66 ± 0.48 nM; and B19, with around 15 nM; and B20, with around 85 nM. For B21, the Kd turned out to be 41 ± 13.5 nM.

B22 showed a Kd of 14.1 ± 0.8 nM. This Kd is about 2.9-fold lower than that of the molecule before. In turn, B23 registered a Kd of around 85 nM. For the molecule B24, the Kd is around 26 nM. With B25, the Kd stood at 20.9 ± 3.75 nM. Then B26, with around 52 nM; and B27, with 13.4 ± 1.8 nM.

For the origin of these results see article PMC10786891, “Massively parallel profiling of RNA-targeting CRISPR-Cas13d”.
